Consider eight molecules from patent publication US7494767 (FUNCTIONAL GENETICS, dated 2009).

The chains are these.
B3: GAL4 DNA-binding domain-p1-p6 fusion protein (other)
chain: MKLLSSIEQACDICRLKKLKCSKEKPKCAKCLKNNWECRYSPKTKRSPLTRAHLTEVESRLERLEQLFLLIFPREDLDMILKMDSLQDIKALLTGLFVQDNVNKDAVTDRLASVETDMPLTLRQHRISATSSSEESSNKGQRQLTVSGKIWPSYKGRPGNFLQSRPEPTAPPFLQSRPEPTAPPEESFRSGVETTTPPQKQEPIDKELYPLTSLRSLFGNDPSSQ
notes: also called pGBT9-p1p6; Gag^p6

Assay [1] concerns the target B3. In words: yeast 2-hybrid, β-galactosidase; Tsg101 variant with p1-p6.
Assay [2] addresses B3. In words: yeast 2-hybrid.
For assay [3], the target named is T1, GAL4 activation domain-Tsg101 N-terminal 311-residue fragment (yeast; human, UniProt Q99816 1-311).
T1 construct: also called N-311
T1 sequence: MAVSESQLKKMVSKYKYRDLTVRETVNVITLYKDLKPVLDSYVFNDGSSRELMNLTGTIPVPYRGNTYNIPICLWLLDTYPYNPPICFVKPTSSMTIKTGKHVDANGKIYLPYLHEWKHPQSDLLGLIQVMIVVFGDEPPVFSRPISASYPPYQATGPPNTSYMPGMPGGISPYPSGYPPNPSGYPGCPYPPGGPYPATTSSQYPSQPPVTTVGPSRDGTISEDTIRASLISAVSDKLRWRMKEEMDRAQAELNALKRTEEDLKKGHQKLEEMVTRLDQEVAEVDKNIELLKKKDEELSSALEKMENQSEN
In words: yeast 2-hybrid.

The target in assay [4] is T2, GAL4 activation domain-Tsg101 fragment from aa139 to the C-terminus (yeast; human, UniProt Q99816 139-390).
T2 construct: also called 139-C
T2 sequence: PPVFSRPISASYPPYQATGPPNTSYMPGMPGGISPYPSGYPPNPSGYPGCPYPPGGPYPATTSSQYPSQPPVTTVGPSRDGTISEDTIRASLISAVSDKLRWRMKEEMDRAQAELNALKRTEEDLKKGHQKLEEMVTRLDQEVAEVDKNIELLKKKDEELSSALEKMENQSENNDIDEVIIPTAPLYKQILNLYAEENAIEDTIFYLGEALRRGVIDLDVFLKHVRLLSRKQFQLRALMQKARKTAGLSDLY
Put plainly: yeast 2-hybrid.

The target of assay [5] is T3, GAL4 activation domain-Tsg101 fusion protein (wild-type human Tsg101) (yeast; human, UniProt Q99816 1-390).
T3 construct: also called hTsg101; product of the human tumor susceptibility gene Tsg101
T3 sequence: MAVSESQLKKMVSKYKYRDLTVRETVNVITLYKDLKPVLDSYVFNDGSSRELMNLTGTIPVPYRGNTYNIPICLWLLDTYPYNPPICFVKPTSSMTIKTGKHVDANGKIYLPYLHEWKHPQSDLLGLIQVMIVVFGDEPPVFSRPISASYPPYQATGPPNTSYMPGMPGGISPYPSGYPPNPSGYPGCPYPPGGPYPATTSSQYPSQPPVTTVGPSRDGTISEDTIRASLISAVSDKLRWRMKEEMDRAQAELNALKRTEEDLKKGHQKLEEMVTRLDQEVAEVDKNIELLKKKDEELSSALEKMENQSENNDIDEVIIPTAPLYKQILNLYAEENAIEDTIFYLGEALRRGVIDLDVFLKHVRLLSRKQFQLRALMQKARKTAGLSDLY
Put plainly: yeast 2-hybrid, LacZ reporter.

The target of assay [6] is T3, GAL4 activation domain-Tsg101 fusion …. Put plainly: yeast 2-hybrid, β-galactosidase; p1-p6 variant with Tsg101.

B1: GAL4 activation domain-Tsg101 with Ala for 149Ser-Tyr150 (other)
chain: MAVSESQLKKMVSKYKYRDLTVRETVNVITLYKDLKPVLDSYVFNDGSSRELMNLTGTIPVPYRGNTYNIPICLWLLDTYPYNPPICFVKPTSSMTIKTGKHVDANGKIYLPYLHEWKHPQSDLLGLIQVMIVVFGDEPPVFSRPISAAAPPYQATGPPNTSYMPGMPGGISPYPSGYPPNPSGYPGCPYPPGGPYPATTSSQYPSQPPVTTVGPSRDGTISEDTIRASLISAVSDKLRWRMKEEMDRAQAELNALKRTEEDLKKGHQKLEEMVTRLDQEVAEVDKNIELLKKKDEELSSALEKMENQSENNDIDEVIIPTAPLYKQILNLYAEENAIEDTIFYLGEALRRGVIDLDVFLKHVRLLSRKQFQLRALMQKARKTAGLSDLY
notes: also called mutation of 149Ser-Tyr150
Regarding B1, in assay [1], the binding result is recorded as “binds”.

B2: GAL4 activation domain-Tsg101 N-terminal 215-residue fragment (other)
chain: MAVSESQLKKMVSKYKYRDLTVRETVNVITLYKDLKPVLDSYVFNDGSSRELMNLTGTIPVPYRGNTYNIPICLWLLDTYPYNPPICFVKPTSSMTIKTGKHVDANGKIYLPYLHEWKHPQSDLLGLIQVMIVVFGDEPPVFSRPISASYPPYQATGPPNTSYMPGMPGGISPYPSGYPPNPSGYPGCPYPPGGPYPATTSSQYPSQPPVTTVGP
notes: also called N-215
On to B2, for which the binding result in assay [2] is reported as “binds”.
As to B3, the binding result in assay [3] was “binds”; in assay [4], “no binding”; in assay [5], “binds”.

B4: GAL4 DNA-binding domain-p1-p6 K493R (other)
chain: MKLLSSIEQACDICRLKKLKCSKEKPKCAKCLKNNWECRYSPKTKRSPLTRAHLTEVESRLERLEQLFLLIFPREDLDMILKMDSLQDIKALLTGLFVQDNVNKDAVTDRLASVETDMPLTLRQHRISATSSSEESSNKGQRQLTVSGKIWPSYKGRPGNFLQSRPEPTAPPFLQSRPEPTAPPEESFRSGVETTTPPQKQEPIDRELYPLTSLRSLFGNDPSSQ
On to B4, for which the binding result in assay [6] is “binds”.

B5: GAL4 DNA-binding domain-p1-p6 K487,493R (other)
chain: MKLLSSIEQACDICRLKKLKCSKEKPKCAKCLKNNWECRYSPKTKRSPLTRAHLTEVESRLERLEQLFLLIFPREDLDMILKMDSLQDIKALLTGLFVQDNVNKDAVTDRLASVETDMPLTLRQHRISATSSSEESSNKGQRQLTVSGKIWPSYKGRPGNFLQSRPEPTAPPFLQSRPEPTAPPEESFRSGVETTTPPQRQEPIDRELYPLTSLRSLFGNDPSSQ
With B5, in assay [6], the binding result is recorded as “binds”.

B6: GAL4 activation domain-Tsg101 N-terminal 155-residue fragment (other)
chain: MAVSESQLKKMVSKYKYRDLTVRETVNVITLYKDLKPVLDSYVFNDGSSRELMNLTGTIPVPYRGNTYNIPICLWLLDTYPYNPPICFVKPTSSMTIKTGKHVDANGKIYLPYLHEWKHPQSDLLGLIQVMIVVFGDEPPVFSRPISASYPPYQA
notes: also called N-155
Consider B6, for which the binding result in assay [2] is “binds”.

B7: GAL4 activation domain-Tsg101 fragment 311-C (other)
chain: NNDIDEVIIPTAPLYKQILNLYAEENAIEDTIFYLGEALRRGVIDLDVFLKHVRLLSRKQFQLRALMQKARKTAGLSDLY
Consider B7, for which the binding result in assay [2] was “no binding”.

B8: GAL4 activation domain-Tsg101 fragment 241-C (other)
chain: RMKEEMDRAQAELNALKRTEEDLKKGHQKLEEMVTRLDQEVAEVDKNIELLKKKDEELSSALEKMENQSENNDIDEVIIPTAPLYKQILNLYAEENAIEDTIFYLGEALRRGVIDLDVFLKHVRLLSRKQFQLRALMQKARKTAGLSDLY
As to B8, the binding result in assay [2] is reported as “no binding”.
